In patent US20180334496A1 (KODIAK SCIENCES, published 2018):
Changes are numbered by the printed parent chain.

B1: 54V59D / 32W50I101V (antibody, V domains shown)
VH: EVQLVESGGGLVQPGGSLRLSCAASGYTFTDYYMNWVRQAPGKGLEWIGDINPVTGDTDYNADFKRRFTFSLDTSKSTAYLQMNSLRAEDTAVYYCTREGPSFAYWGQGTLVTVSS
VL: DIQLTQSPSSLSASVGDRVTITCRSSQTIVHWNGDTYLEWYQQKPGKAPILLIYKVSNRFSGVPSRFSGSGSGTDFTLTISSLQPEDFATYYCFQGSHVPVTFGQGTKVEIK
notes: KCD119 TAF variant; full antibody captured on protein A
B2: 31S54V59D / 54R101V (antibody, V domains shown)
VH: B1 VH with D31S
VL: DIQLTQSPSSLSASVGDRVTITCRSSQTIVHSNGDTYLEWYQQKPGKAPNLLIRKVSNRFSGVPSRFSGSGSGTDFTLTISSLQPEDFATYYCFQGSHVPVTFGQGTKVEIKR
notes: KCD119 TAF variant
B3: 54V59D / 34D50V101V (antibody, V domains shown)
VH: B1 VH
VL: B1 VL with W32S, G34D, I50V
notes: as for B1
B4: 54V59D / 34D60W101V (antibody, V domains shown)
VH: B1 VH
VL: B1 VL with W32S, G34D, I50N, F60W
notes: as for B1
B5: 54V / 101V (antibody, V domains shown)
VH: B1 VH with D59S
VL: B1 VL with W32S, I50N
notes: as for B1
B6: 54V59D / 54R101V (antibody, V domains shown)
VH: B1 VH
VL: B2 VL
notes: KCD119 TAF variant
B7: KCD001 (antibody, V domains shown)
VH: EVQLQQSGPELVKPGASVKISCKASDNSFTGYYMHWVKQSHGNILDWIGYIDPYNGVSSYNQKFKGKATLTVDKSSSTAYMEIRSLTSEDSAVYYCASYYGSSPYWYFDVWGTGTTVTVSS
VL: QIVLSQSPAILSASPGEKVTMTCRASSSVSYMHWYQQKPGSSPKPWIYATSNLASGVPARFSGSGSGTSHFLTISRLEAEDAATYFCQQWSSNPYTFGGGTKLEIK
B8: KCD042 (antibody, V domains shown)
VH: EVQLQQSGAELVKPGASVRLSCTASGFNIKHTYIHWVSQRPEQGLEWIGKIDPANGNTKYDPKFQGKATITADTSSNTAYLQLSSLTSEDTAVYYCVNAMEYWGQGTSVTVSS
VL: QSVLTQSPAIMSASPGEKVTMTCSANSSVSDMYWFQQRPGSSPRLLIYDTSNLASGVPVRFSGSGSGTSYSLTISRMEAEDAATYYCQQWSTYPWTFGGGTKLEIK
B9: KCD033 (antibody, V domains shown)
VH: EVQLQQSGPELVKPGASMKISCTASGYSFTGYTMTWVKQSHGKNLEWIGLINPYNGGTNYNQKFKGKATLTVDKSSSIAYMELLSLTSEDSAVYYCARRHYGSNWDYWGQGTTLTVSS
VL: DIKLTQSPSSIYTSLGERVTITCKASQDINTYLSWFQQRPGKSPKTLIYRADRLVDGVPSRVRGSGSGQDYSLTISSLEYEDMGIYYCLQYDEFPYTFGGGTKLEIK
B10: KCD036 (antibody, V domains shown)
VH: B9 VH with T23K, L70F, I78T, N104S
VL: B9 VL with I11M, T13A, R39K, D52N, V62F, R63S, D82E
B11: KCD015 (antibody, V domains shown)
VH: EVQLQQSGAELVKPGASVKLSCTASGFNIKDTYMHWVKQRPEQGLEWIGRIDPANGYTEYDPKFQGKATITADTSSNTAYLQLSSLTSEDSAAYYCTSAMEFWGQGTSVTVSS
VL: QIVLTQSPAILSASPGEKVTMTCSASSSVSYIYWYQQKPRSSPRLLIYDTSNLASGVPVRFSGSGSGTSYSLTISRMEAEDAATYYCQQWSSYPFTFGGGTKLEVK
B12: KCD005 (antibody, V domains shown)
VH: EVQLQQSGPELVKPGASVKISCKASGYTFTDHYMNWVKQSHGKSLEWIGDINPNNGGTSCNQKFKGKATLTVDKSSSTAYMELRSLTSGDSAVYYCTREGASFAFWGQGTLVTVSA
VL: DVLMTQTPLSLPVSLGDQASISCRSSQSIVHSNGDTYLEWYLQKPGQSPKLLIYKVSNRFSGVPDRFSGSGSGTDFTLKISRVEAEDLGVYYCFQGSHVPVTFGAGTKLELK
B13: KCD009 (antibody, V domains shown)
VH: QIQLVQSGPELKKPGETVKISCKASGYIFRNYGMNWVKQGPGKGLKWMGWINTYTGEPTYADDFKGRFAFSLETSASTAYLQISNLKNEDTATYFCVRDGPGFAYWGQGTLVTVSA
VL: B12 VL with Q27L, S28I, V30E, N33D, D35N, E86D, K108N
B14: KCD124 (antibody, V domains shown)
VH: B12 VH with C60Y
VL: B12 VL with V101L
B15: KCD022 (antibody, V domains shown)
VH: DVQLQESGPDLVKPSQSLSLTCTVTGYSITSGYSWHWIRQFPGNTLEWMGYIHYSGSTNYNPSLESRISFTRDTSKNQFFLQLNSVTTEDTATYYCALHFYGYNLGWYFDVWGAGTTVTVSS
VL: DIVMTQSHKFMSTSIGDRVIITCKASQDVGTTVAWYQQRPGQSPKLLIYWASTRHTAVPDRFTGSGSGTDFTLTISNVQSEDLADYFCQQYTSYPLTFGAGTQLELK
B16: KCD010 (antibody, V domains shown)
VH: EVLLQQSGPELVKPGASVKIPCKASGYTFTDYDMDWVKQSHGKSLEWIGHINPNNGGTIYNQKFKGKATLTVDKSSSTAYMELRSLTSEDTAVYYCGTGDFAYWGHGTLVTVSA
VL: QIVLTQSPAIMSVSPGEKVTLTCSASSSVSSSYLYWYQKKPGSSPKLWIYSTSNLASGVPARFSGSGSGTSYSLTISSMEAEDAASYFCHQWSSYPPTFGAGTKLELK
B17: KCD023 (antibody, V domains shown)
VH: B16 VH with D33N, M34I, H50D, T58I, I59N, F101Y, H106Q
VL: B16 VL with I10F, V13A, K39Q, A61G, S93T
B18: KCD112 (antibody, V domains shown)
VH: EVQLQQSGPELVKPGASVKISCKASGYSFTAYYMNWVKHSPEKSLEWIGDINPSTGGTTYNQKFKARATLTVDKSSSTAYMQLKSLTSEDSAVYYCATTYYSGNSYVGFAYWGQGTLVTVSA
VL: DIVMTQSHKFMSTSVGDRVSITCKASQDVSTAVAWYQQKPGQSPKLLIFWTSTRHTGVPDRFTGSGSGTDYTLTISSVQAEDLALYYCQQHYTTPWTFGGGTKLEIK
B19: KCD115 (antibody, V domains shown)
VH: B18 VH with A31G, H39Q, R67K, T99P, S102Y, N104S
VL: B18 VL with A34D, F49Y, T51A, T93S
B20: KCD111 (antibody, V domains shown)
VH: B7 VH with D26G, N27Y, G31D, T71S, K74Q, I83L, A97S, T116R
VL: B7 VL with A59T, H70Y, F71S, R76K, F86Y
B21: KCD006 (antibody, V domains shown)
VH: B8 VH with R19K, N28K, H31D, I34M, S38K, Q39E, K50R, V97A, E101D
VL: B8 VL with S2I, V3I, N26R, D31N, F35Y, R38K, T92S
B22: KCD232 (antibody, V domains shown)
VH: EVQLVESGGGLVQPKGSLKLSCAASGFSFNTYAMNWVRQAPGKGLEWVARIRSKSNNYATYYADSVKDRFTISRDDSESMVYLQMNNLKTEDTAMYYCVRHGYYWYFDVWGTGTTVTVSS
VL: B12 VL with N33D, D35N, K55R, V83M, V101Y, A105G, L111I
B23: KCD129 (antibody, V domains shown)
VH: B22 VH
VL: B12 VL with N33D, D35N, K55R, V83M, V101Y, A105G, L111I
B24: KCD229 (antibody, V domains shown)
VH: B22 VH with S73F, V81L
VL: B12 VL with T7N, D35N, K50N, K55N, S57F, V101Y, A105S, L111I
B25: KCD207 (antibody, V domains shown)
VH: B22 VH with E1A, I72L, V81L, H101Q, Y103F
VL: B12 VL with S28T, D35N, P45S, K55N, S68R, V101Y, A105S, L111I
B26: KCD216 (antibody, V domains shown)
VH: QVHLQQSGPELVKPGASVKISCKASGYTFIDYYINWVKQRPGQGLEWIGWIFPGSDSTYYNEKFKGKATLTVDKSSSTAYMLLSSLTSEDSAVYFCARYGYYGSSFYAMDYWGQGTSVTVSS
VL: DIQMTQSPASLSVSVGETVTITCRASENIYSNLAWYQQKQGKSPQLLVYAATNLADGVPSRFSGSGSGTQYSLKINSLQSEDFGSYYCQHFWGTPPTFGGGSKLEIK

Target: T1, serum purified human Complement Factor D (human, UniProt P00746 26-253)
T1 construct: Serum purified protein flowed over the captured antibodies; also called CFD; human CFD
Assay: SPR Biacore, antibody on protein A chip, single cycle kinetics, 25 C;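 further: antibodies captured to roughly 70 RU on the protein A surface in HBS-EP+ running buffer, with kinetic constants derived by BIAevaluation fitting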
Protocol: (§1) Antibodies were diluted to 0.5 ug/ml in HBS-EP+ buffer and captured on a protein A chip for 25 seconds to reach approximately 70 resonance units. […] Binding kinetic information was obtained by the BIAevaluation software (GE).

T1 sequence (P00746 26-253): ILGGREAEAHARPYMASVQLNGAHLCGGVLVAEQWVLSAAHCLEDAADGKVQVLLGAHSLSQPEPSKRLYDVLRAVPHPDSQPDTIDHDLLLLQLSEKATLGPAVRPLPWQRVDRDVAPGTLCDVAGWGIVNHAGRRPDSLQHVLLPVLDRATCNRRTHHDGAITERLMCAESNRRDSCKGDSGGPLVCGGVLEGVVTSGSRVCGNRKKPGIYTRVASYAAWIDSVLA

Row | Kd | koff | kon | Binder
1 | 0.0158 nM | 0.000105 s⁻¹ | 6.64e+06 M⁻¹ s⁻¹ | B1
2 | 0.00394 nM | 5.48e-05 s⁻¹ | 1.39e+07 M⁻¹ s⁻¹ | B2
3 | 0.0257 nM | 0.000187 s⁻¹ | 7.26e+06 M⁻¹ s⁻¹ | B3
4 | 0.0213 nM | 0.000187 s⁻¹ | 8.8e+06 M⁻¹ s⁻¹ | B4
5 | 0.0688 nM | 0.000491 s⁻¹ | 7.14e+06 M⁻¹ s⁻¹ | B5
6 | 0.0119 nM | 0.000141 s⁻¹ | 1.19e+07 M⁻¹ s⁻¹ | B6

Target: T1, serum purified human Complement Factor D
Assay: SPR Biacore, antibody on protein A chip, single cycle kinetics, 37 C;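 further: antibodies captured on the protein A surface to roughly 70 RU in HBS-EP+ buffer, with rate and affinity constants fitted using BIAevaluation software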
Protocol: as §1

Row | Kd | koff | kon | Binder
7 | 0.0223 nM | 0.000305 s⁻¹ | 1.37e+07 M⁻¹ s⁻¹ | B1
8 | 0.00725 nM | 0.000242 s⁻¹ | 3.33e+07 M⁻¹ s⁻¹ | B2
9 | 0.0591 nM | 0.00079 s⁻¹ | 1.34e+07 M⁻¹ s⁻¹ | B3
10 | 0.0531 nM | 0.00083 s⁻¹ | 1.56e+07 M⁻¹ s⁻¹ | B4
11 | 0.142 nM | 0.00158 s⁻¹ | 1.11e+07 M⁻¹ s⁻¹ | B5
12 | 0.0154 nM | 0.00037 s⁻¹ | 2.4e+07 M⁻¹ s⁻¹ | B6

Target: T2, human Complement Factor D (CFD), purified from human serum (human, UniProt P00746 26-253)
T2 construct: serum purified (CompTech A136); also called serum purified CFD; hCFD-Comptech
Assay: SPR MX96, mAbs amine-coupled, CFD injected

T2 sequence (P00746 26-253): as above

Row | Kd | Binder
13 | 0.225 nM | B7
14 | 1.43 nM | B8
15 | 10.9 nM | B9
16 | 25.5 nM | B10
17 | 6.23 nM | B11
18 | 1.39 nM | B12
19 | 5.57 nM | B13
20 | 4.32 nM | B14
21 | 56.8 nM | B15
22 | 3.05 nM | B16
23 | 5.29 nM | B17

Target: T3, recombinant cynomolgus CFD, His-tagged (cynomolgus)
T3 construct: also called rcyCFD-His; recombinant Cyno-CFD
Assay: SPR MX96

Row | Kd | Binder
24 | 9.1 nM | B18
25 | 18 nM | B19
26 | 7.2 nM | B20
27 | 150 nM | B21
28 | 5.5 nM | B22
29 | 6 nM | B23
30 | 1.6 nM | B24
31 | 1.4 nM | B25
32 | 13 nM | B26
